According to IntAct's records for PubMed 22493223:

B1: Mitotic spindle assembly checkpoint protein MAD1 (Homo sapiens), Q9Y6D9 (parent)
chain: MEDLGENTMVLSTLRSLNNFISQRVEGGSGLDISTSAPGSLQMQYQQSMQLEERAEQIRSKSHLIQVEREKMQMELSHKRARVELERAASTSARNYEREVDRNQELLTRIRQLQEREAGAEEKMQEQLERNRQCQQNLDAASKRLREKEDSLAQAGETINALKGRISELQWSVMDQEMRVKRLESEKQELQEQLDLQHKKCQEANQKIQELQASQEARADHEQQIKDLEQKLSLQEQDAAIVKNMKSELVRLPRLERELKQLREESAHLREMRETNGLLQEELEGLQRKLGRQEKMQETLVGLELENERLLAKLQSWERLDQTMGLSIRTPEDLSRFVVELQQRELALKDKNSAVTSSARGLEKARQQLQEELRQVSGQLLEERKKRETHEALARRLQKRVLLLTKERDGMRAILGSYDSELTPAEYSPQLTRRMREAEDMVQKVHSHSAEMEAQLSQALEELGGQKQRADMLEMELKMLKSQSSSAEQSFLFSREEADTLRLKVEELEGERSRLEEEKRMLEAQLERRALQGDYDQSRTKVLHMSLNPTSVARQRLREDHSQLQAECERLRGLLRAMERGGTVPADLEAAAASLPSSKEVAELKKQVESAELKNQRLKEVFQTKIQEFRKACYTLTGYQIDITTENQYRLTSLYAEHPGDCLIFKATSPSGSKMQLLETEFSHTVGELIEVHLRRQDSIPAFLSSLTLELFSRQTVA

Variants of: B1
Conditions: with md2l1_human MAD2L1, Q13257
md2l1_human MAD2L1, Q13257, sequence (Q13257 whole entry): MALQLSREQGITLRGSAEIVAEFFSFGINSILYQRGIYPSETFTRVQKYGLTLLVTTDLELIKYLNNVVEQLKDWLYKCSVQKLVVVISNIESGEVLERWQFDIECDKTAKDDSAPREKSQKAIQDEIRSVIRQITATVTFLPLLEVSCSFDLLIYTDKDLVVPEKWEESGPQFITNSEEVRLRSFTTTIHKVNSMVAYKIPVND

Row | Variant | effect of a mutation on the interaction
1 | K541A;V542A;L543A;H544A;M545A | disrupting interaction strength
